Reference: patent US20260109758A1 (BIOSION, published 2026)

B1: BSI-502-008 (bispecific antibody, human IgG1, kappa)
heavy: DIQMTQSPSSLSASVGDRVTITCRPTENIYSYLAWYQQKPGKAPKLLIYFARTLAEGVPSRFSGSGSGTDFTLTISSLQPEDFATYYCQHHYGTPWTFGGGTKVEIKGGGGSGGGGSGGGGSGGGGSQVQLVQSGAEVKKPGASVKVSCKASGYTFTTYWMHWVRQAPGQGLEWMGVIDPSDSDTTYNQKFKGRVTMTRDTSTSTVYMELSSLRSEDTAVYYCTRSLDGYYDYWGQGTLVTVSSGGGGSGGGGSEVQLVESGGGLVQPGGSLRLSCAASGFTFSTYGMSWVRQAPGKGLVWVATINSNGGSTSYPDSVKGRFTISRDNAKNTLYLQMNSLRAEDTAVYYCARFFRFRNAMDYWGQGTLVTVSSASTKGPSVFPLAPSSKSTSGGTAALGCLVKDYFPEPVTVSWNSGALTSGVHTFPAVLQSSGLYSLSSVVTVPSSSLGTQTYICNVNHKPSNTKVDKKVEPKSCDKTHTCPPCPAPEAQGGPSVFLFPPKPKDTLYITREPEVTCVVVDVSHEDPEVKFNWYVDGVEVHNAKTKPREEQYNSTYRVVSVLTVLHQDWLNGKEYKCQVSNKALPAPIEKTISKAKGQPREPQVYTLPPSRDELTKNQVSLTCLVKGFYPSDIAVEWESNGQPENNYKTTPPVLDSDGSFFLYSKLTVDKSRWQQGNVFSCSVMHEALHNHYTQKSLSLSPG
light: DIQMTQSPSSLSASVGDRVTITCRTSENIYSYLAWYQQKPGKAPKFLVYNAKTLAEGVPSRFSGSGSGTDFTLTISSLQPEDFATYYCQHYYGPPTWTFGQGTKVEIKRTVAAPSVFIFPPSDEQLKSGTASVVCLLNNFYPREAKVQWKVDNALQSGNSQESVTEQDSKDSTYSLSSTLTLSKADYEKHKVYACEVTHQGLSSPVTKSFNRGEC
notes: huC2C1A1A1-V15 IgG with an anti-TSLP scFv (VL-VH) at the N-terminus of the heavy chain; AQQ and YTE already stand in the entry
B2: BSI-502-001 (bispecific antibody, human IgG1, kappa)
heavy: EVQLVESGGGLVQPGGSLRLSCAASGFTFSTYGMSWVRQAPGKGLVWVATINSNGGSTSYPDSVKGRFTISRDNAKNTLYLQMNSLRAEDTAVYYCARFFRFRNAMDYWGQGTLVTVSSASTKGPSVFPLAPSSKSTSGGTAALGCLVKDYFPEPVTVSWNSGALTSGVHTFPAVLQSSGLYSLSSVVTVPSSSLGTQTYICNVNHKPSNTKVDKKVEPKSCDKTHTCPPCPAPEAQGGPSVFLFPPKPKDTLYITREPEVTCVVVDVSHEDPEVKFNWYVDGVEVHNAKTKPREEQYNSTYRVVSVLTVLHQDWLNGKEYKCQVSNKALPAPIEKTISKAKGQPREPQVYTLPPSRDELTKNQVSLTCLVKGFYPSDIAVEWESNGQPENNYKTTPPVLDSDGSFFLYSKLTVDKSRWQQGNVFSCSVMHEALHNHYTQKSLSLSPGKGGGGSGGGGSQVQLVQSGAEVKKPGASVKVSCKASGYTFTTYWMHWVRQAPGQGLEWMGVIDPSDSDTTYNQKFKGRVTMTRDTSTSTVYMELSSLRSEDTAVYYCTRSLDGYYDYWGQGTLVTVSSGGGGSGGGGSGGGGSGGGGSDIQMTQSPSSLSASVGDRVTITCRPTENIYSYLAWYQQKPGKAPKLLIYFARTLAEGVPSRFSGSGSGTDFTLTISSLQPEDFATYYCQHHYGTPWTFGGGTKVEIK
light: B1 light
notes: huC2C1A1A1-V15 IgG with an anti-TSLP scFv (hu1C5F12E9-V8, VH-VL) at the C-terminus of the heavy chain
B3: BSI-502-003 (bispecific antibody, human IgG1, kappa)
heavy: EVQLVESGGGLVQPGGSLRLSCAASGFTFSTYGMSWVRQAPGKGLVWVATINSNGGSTSYPDSVKGRFTISRDNAKNTLYLQMNSLRAEDTAVYYCARFFRFRNAMDYWGQGTLVTVSSGGGGSGGGGSGGGGSGGGGSDIQMTQSPSSLSASVGDRVTITCRTSENIYSYLAWYQQKPGKAPKFLVYNAKTLAEGVPSRFSGSGSGTDFTLTISSLQPEDFATYYCQHYYGPPTWTFGQGTKVEIKGGGGSGGGGSQVQLVQSGAEVKKPGASVKVSCKASGYTFTTYWMHWVRQAPGQGLEWMGVIDPSDSDTTYNQKFKGRVTMTRDTSTSTVYMELSSLRSEDTAVYYCTRSLDGYYDYWGQGTLVTVSSASTKGPSVFPLAPSSKSTSGGTAALGCLVKDYFPEPVTVSWNSGALTSGVHTFPAVLQSSGLYSLSSVVTVPSSSLGTQTYICNVNHKPSNTKVDKKVEPKSCDKTHTCPPCPAPEAQGGPSVFLFPPKPKDTLYITREPEVTCVVVDVSHEDPEVKFNWYVDGVEVHNAKTKPREEQYNSTYRVVSVLTVLHQDWLNGKEYKCQVSNKALPAPIEKTISKAKGQPREPQVYTLPPSRDELTKNQVSLTCLVKGFYPSDIAVEWESNGQPENNYKTTPPVLDSDGSFFLYSKLTVDKSRWQQGNVFSCSVMHEALHNHYTQKSLSLSPG
light: DIQMTQSPSSLSASVGDRVTITCRPTENIYSYLAWYQQKPGKAPKLLIYFARTLAEGVPSRFSGSGSGTDFTLTISSLQPEDFATYYCQHHYGTPWTFGGGTKVEIKRTVAAPSVFIFPPSDEQLKSGTASVVCLLNNFYPREAKVQWKVDNALQSGNSQESVTEQDSKDSTYSLSSTLTLSKADYEKHKVYACEVTHQGLSSPVTKSFNRGEC
notes: hu1C5F12E9-V8 IgG with an anti-IL4R scFv (huC2C1A1A1-V15, VH-VL) at the N-terminus of the heavy chain; AQQ and YTE already stand in the entry
B4: BSI-502-004 (bispecific antibody, human IgG1, kappa)
heavy: DIQMTQSPSSLSASVGDRVTITCRTSENIYSYLAWYQQKPGKAPKFLVYNAKTLAEGVPSRFSGSGSGTDFTLTISSLQPEDFATYYCQHYYGPPTWTFGQGTKVEIKGGGGSGGGGSGGGGSGGGGSEVQLVESGGGLVQPGGSLRLSCAASGFTFSTYGMSWVRQAPGKGLVWVATINSNGGSTSYPDSVKGRFTISRDNAKNTLYLQMNSLRAEDTAVYYCARFFRFRNAMDYWGQGTLVTVSSGGGGSGGGGSQVQLVQSGAEVKKPGASVKVSCKASGYTFTTYWMHWVRQAPGQGLEWMGVIDPSDSDTTYNQKFKGRVTMTRDTSTSTVYMELSSLRSEDTAVYYCTRSLDGYYDYWGQGTLVTVSSASTKGPSVFPLAPSSKSTSGGTAALGCLVKDYFPEPVTVSWNSGALTSGVHTFPAVLQSSGLYSLSSVVTVPSSSLGTQTYICNVNHKPSNTKVDKKVEPKSCDKTHTCPPCPAPEAQGGPSVFLFPPKPKDTLYITREPEVTCVVVDVSHEDPEVKFNWYVDGVEVHNAKTKPREEQYNSTYRVVSVLTVLHQDWLNGKEYKCQVSNKALPAPIEKTISKAKGQPREPQVYTLPPSRDELTKNQVSLTCLVKGFYPSDIAVEWESNGQPENNYKTTPPVLDSDGSFFLYSKLTVDKSRWQQGNVFSCSVMHEALHNHYTQKSLSLSPG
light: B3 light
notes: hu1C5F12E9-V8 IgG with an anti-IL4R scFv (VL-VH) at the N-terminus of the heavy chain; AQQ and YTE already stand in the entry

Target: T1, human IL4Rα expressed on 293F-IL4Rα cell surface (human, UniProt P24394 26-825)
T1 construct: whole, on cells; also called human IL4Rα-expressing cells; cell surface IL4R
Assay: flow cytometry on 293F-IL4Rα cells, PE anti-human IgG Fc

| EC50 [nM] | Binder |
| --- | --- |
| 0.176 | B1 |

Target: T2, recombinant human TSLP-his (human, UniProt Q969D9 29-159, biotin-labeled in the ELISAs)
T2 construct: In-house made; not shown: His tag at the C-terminus
Assay: SPR Biacore; TSLP-his amine-coupled to CM5 chip, antibody as analyte; 1:1 Langmuir fit
Protocol: Un-reacted moieties on the biosensor surface were blocked with ethanolamine. Then, serially diluted purified bispecific antibodies and the controls (2-fold serial dilution in HBS-EP⁺ buffer starting at 100 nM) were respectively flowed onto the chip at a flow rate of 30 μL/min. The antigen-antibody association kinetics was followed for 4 minutes and the dissociation kinetics was followed for 13 minutes.

| Kd [nM] | koff [s⁻¹] | kon [M⁻¹ s⁻¹] | Binder |
| --- | --- | --- | --- |
| < 0.0246 | < 1e-05 | 407000 | B2 |
| 0.00758 | 4.43e-06 | 585000 | B1 |
| 0.000317 | 1.82e-07 | 574000 | B3 |
| 0.00342 | 1.71e-06 | 499000 | B4 |

Target: T2, recombinant human TSLP-his
Assay: capture ELISA: antibody captured on anti-human IgG Fc F(ab')2, biotin human TSLP-his, SA-HRP

| EC50 [nM] | Binder |
| --- | --- |
| 0.0742 | B1 |

Target: T3, recombinant human IL4Rα-his (human, UniProt P24394 26-231, limits assumed, biotin-labeled in the capture ELISA)
T3 construct: In-house made; not shown: His tag at the C-terminus
Assay: capture ELISA: antibody captured on anti-human IgG Fc F(ab')2, biotin human IL4Rα-his, SA-HRP
Protocol: Briefly, 96-well plates were coated with 2 μg/mL AffiniPure F(ab′)₂ Fragment Goat Anti-Human IgG, Fey fragment specific (Jackson Immuno Research, Cat #109-006-008) in PBS, 100 μL/well, overnight at 4° C. Plates were washed once with wash buffer (PBS+0.05% w/v Tween-20, PBST) and then blocked with 200 μL/well blocking buffer (5% w/v non-fatty milk in PBST) for 2 hours at 37° C. […] After a final wash, plates were incubated with 100 μL/well ELISA substrate TMB (Innoreagents, Cat #TMB-S-002). The reaction was stopped in 10 minutes at 25° C. with 50 μL/well 1M H₂SO₄, and the absorbance was read on a microplate reader using dual wavelength mode with 450 nm for TMB and 630 nm as the reference wavelength. Data was analyzed using Graphpad Prism and EC₅₀ values were reported.

| EC50 [nM] | Binder |
| --- | --- |
| 0.0218 | B2 |
| 0.0416 | B3 |
| 0.0346 | B4 |

Target: T3, recombinant human IL4Rα-his
Assay: as above
Remark: another data set of the same source

| EC50 [nM] | Binder |
| --- | --- |
| 0.0323 | B1 |

Target: T3, recombinant human IL4Rα-his
Assay: SPR Biacore T200; antibody captured on anti-human IgG CM5 chip, IL4Rα-his as analyte; 1:1 Langmuir fit
Method in brief: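 Antibodies captured on anti-human IgG CM5 chip (bispecifics at 66.67 nM, controls 10 μg/mL), then serially diluted recombinant human IL4Rα-his (C-terminal His tag) in HBS EP flowed at 30 μL/min. Association and dissociation curves fit to 1:1 Langmuir model.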

| Kd [nM] | koff [s⁻¹] | kon [M⁻¹ s⁻¹] | Binder |
| --- | --- | --- | --- |
| 3.09 | 0.000497 | 161000 | B2 |
| 3.15 | 0.000436 | 138000 | B1 |
| 2.43 | 0.000534 | 220000 | B3 |
| 2.43 | 0.000453 | 186000 | B4 |

Target: T3, recombinant human IL4Rα-his
Assay: dual-binding ELISA: coated human IL4Rα-his, antibody titrated, detection with biotin human TSLP-his and SA-HRP; signal needs both antigens bound
Protocol: For the dual-binding ELISA, 96-well ELISA plates were firstly coated with 100 μL 1 μg/mL human IL4Rα-his protein (IL4Rα of SEQ ID NO: 33 with His tag at C terminus, prepared in-house) in PBS overnight at 4° C. ELISA plates were washed 4 times with wash buffer (PBS+0.05% Tween-20, PBST) and then blocked with 200 μL/well blocking buffer (5% w/v non-fatty milk in PBST) for 2 hours at 37° C. […] ELISA plates were washed again and incubated with SA-HRP (100 μl/well) for 40 minutes at 37° C. After the final wash, 100 μL/well TMB (Innoreagents) was added. The reaction was stopped 15 minutes later at room temperature with 50 μL/well 1M H₂SO₄, and the absorbance was read on a microplate reader using dual wavelength mode with 450 nm for TMB and 630 nm as the reference wavelength. The OD (450-630) values were plotted against antibody concentration. Data was analyzed using Graphpad Prism and EC₅₀ values were reported.

| EC50 [nM] | Binder |
| --- | --- |
| 0.0349 | B2 |
| 0.107 | B1 |
| 0.0491 | B3 |
| 0.0652 | B4 |
